Laboratory results taken from patent publication US20140120095A1 (Boehringer Ingelheim, published 2014).
Positions count from the first letter of the chain named.

How the values were obtained:
[1] = molecular target: T1, recombinant human DLL4 (human, UniProt Q9NR61 25-522); test: Biacore off-rate, periplasmic extract
T1 construct: also called rhDLL4; hDLL4

[2] = molecular target: T2, recombinant human DLL4 (C-terminally His-tagged extracellular domain, R&D Systems) (human, UniProt Q9NR61 25-522, biotinylated in the competition ELISA); test: SPR (Biacore), rhDLL4
T2 construct: also called rhDLL4; hDLL4
Method: Kinetic analysis to determine the affinity of the DII4-VHH interaction is performed by Surface Plasmon Resonance (SPR) on a Biacore T100 instrument. […] Purified VHHs or Fab fragment are injected for 2 minutes at different concentrations (between 10 and 300 nM) and allowed to dissociate for 20 min at a flow rate of 45 μl/min. Between sample injections, the surfaces are regenerated with 10 mM glycine pH1.5 and 100 mM HCl. HBS-N (Hepes buffer pH7.4) is used as running buffer. If possible, data are evaluated by fitting a 1:1 interaction model (Langmuir binding) onto the binding curves. The affinity constant KD is calculated from resulting association and dissociation rate constants (kₐ) and […].

[3] = molecular target: T3, recombinant mouse DLL4 (C-terminally His-tagged extracellular domain, R&D Systems) (mouse, UniProt Q9JI71 27-532); test: SPR (Biacore), rmDLL4
T3 construct: extracellular domain; also called rmDLL4; mDLL4

[4] = molecular target: T4, human DLL4 expressed on cells (CHO-hDLL4; HEK293-hDLL4) (human, UniProt Q9NR61 27-685); test: cell-based or functional assay
[5] = molecular target: T5, cynomolgus DLL4 expressed on CHO cells (cynomolgus, UniProt Q9NR61 27-685 (human entry)); test: FACS on CHO-cDLL4 cells
T5 construct: also called cDLL4; CHO-cDLL4
T5 chain: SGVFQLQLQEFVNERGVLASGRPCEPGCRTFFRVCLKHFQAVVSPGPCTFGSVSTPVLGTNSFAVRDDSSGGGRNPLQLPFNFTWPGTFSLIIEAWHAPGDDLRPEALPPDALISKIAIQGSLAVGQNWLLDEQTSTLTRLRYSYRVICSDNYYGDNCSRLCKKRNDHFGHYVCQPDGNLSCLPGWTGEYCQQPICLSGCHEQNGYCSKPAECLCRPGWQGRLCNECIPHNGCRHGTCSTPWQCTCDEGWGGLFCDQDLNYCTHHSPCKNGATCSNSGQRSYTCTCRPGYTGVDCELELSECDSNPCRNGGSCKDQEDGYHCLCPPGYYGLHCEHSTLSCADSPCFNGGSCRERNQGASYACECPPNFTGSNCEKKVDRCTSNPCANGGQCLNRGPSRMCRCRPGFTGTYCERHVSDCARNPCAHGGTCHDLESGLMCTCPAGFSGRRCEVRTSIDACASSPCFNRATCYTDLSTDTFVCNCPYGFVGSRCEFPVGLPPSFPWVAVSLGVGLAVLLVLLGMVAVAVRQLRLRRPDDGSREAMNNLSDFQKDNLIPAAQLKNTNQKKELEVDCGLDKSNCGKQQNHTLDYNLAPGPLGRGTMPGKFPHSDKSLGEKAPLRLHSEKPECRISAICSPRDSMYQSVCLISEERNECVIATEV

[6] = molecular target: T4, human DLL4 expressed on cells …; test: FACS on CHO-hDLL4 cells
[7] = molecular target: T6, mouse DLL4 expressed on CHO cells (mouse, UniProt Q9JI71 27-686); test: FACS on CHO-mDLL4 cells
T6 construct: whole, on cells; also called mDLL4; CHO-mDLL4

[8] = molecular target: T2, recombinant human DLL4 (C-terminally …); test: SPR (Biacore); summary table
[9] = molecular target: T3, recombinant mouse DLL4 (C-terminally …); test: SPR (Biacore); summary table
[10] = molecular target: T4, human DLL4 expressed on cells …; test: competition FMAT CHO-hDLL4; summary table
[11] = molecular target: T6, mouse DLL4 expressed on CHO cells; test: competition FMAT CHO-mDLL4; summary table
[12] = molecular target: T5, cynomolgus DLL4 expressed on CHO cells; test: FACS; summary table, column taken as cDLL4
[13] = molecular target: T4, human DLL4 expressed on cells …; test: FACS; summary table, column taken as hDLL4
[14] = molecular target: T6, mouse DLL4 expressed on CHO cells; test: FACS; summary table, column taken as mDLL4
[15] = molecular target: T2, recombinant human DLL4 (C-terminally …); test: competition ELISA hDLL4/hNotch1-Fc; summary table
[16] = molecular target: T4, human DLL4 expressed on cells …; test: competition FMAT, labelled hNotch1-Fc on CHO-hDLL4 cells
[17] = molecular target: T6, mouse DLL4 expressed on CHO cells; test: competition FMAT, labelled hNotch1-Fc on CHO-mDLL4 cells
[18] = molecular target: T2, recombinant human DLL4 (C-terminally …); test: competition ELISA, biotinylated hDLL4 to coated hNotch1-Fc

T3 sequence (Q9JI71 27-532): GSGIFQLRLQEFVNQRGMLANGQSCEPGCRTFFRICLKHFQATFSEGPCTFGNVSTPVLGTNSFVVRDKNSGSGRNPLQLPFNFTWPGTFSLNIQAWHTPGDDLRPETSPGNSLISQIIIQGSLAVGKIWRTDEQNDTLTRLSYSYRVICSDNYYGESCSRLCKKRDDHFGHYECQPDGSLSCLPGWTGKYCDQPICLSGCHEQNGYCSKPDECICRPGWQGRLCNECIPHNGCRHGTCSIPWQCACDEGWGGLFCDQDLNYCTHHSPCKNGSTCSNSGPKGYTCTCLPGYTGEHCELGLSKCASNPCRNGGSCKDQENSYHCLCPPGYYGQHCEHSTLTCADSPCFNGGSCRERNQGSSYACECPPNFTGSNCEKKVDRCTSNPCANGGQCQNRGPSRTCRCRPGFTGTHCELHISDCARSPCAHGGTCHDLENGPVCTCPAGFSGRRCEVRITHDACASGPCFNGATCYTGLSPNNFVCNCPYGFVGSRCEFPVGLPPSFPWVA
T6 sequence (Q9JI71 27-686): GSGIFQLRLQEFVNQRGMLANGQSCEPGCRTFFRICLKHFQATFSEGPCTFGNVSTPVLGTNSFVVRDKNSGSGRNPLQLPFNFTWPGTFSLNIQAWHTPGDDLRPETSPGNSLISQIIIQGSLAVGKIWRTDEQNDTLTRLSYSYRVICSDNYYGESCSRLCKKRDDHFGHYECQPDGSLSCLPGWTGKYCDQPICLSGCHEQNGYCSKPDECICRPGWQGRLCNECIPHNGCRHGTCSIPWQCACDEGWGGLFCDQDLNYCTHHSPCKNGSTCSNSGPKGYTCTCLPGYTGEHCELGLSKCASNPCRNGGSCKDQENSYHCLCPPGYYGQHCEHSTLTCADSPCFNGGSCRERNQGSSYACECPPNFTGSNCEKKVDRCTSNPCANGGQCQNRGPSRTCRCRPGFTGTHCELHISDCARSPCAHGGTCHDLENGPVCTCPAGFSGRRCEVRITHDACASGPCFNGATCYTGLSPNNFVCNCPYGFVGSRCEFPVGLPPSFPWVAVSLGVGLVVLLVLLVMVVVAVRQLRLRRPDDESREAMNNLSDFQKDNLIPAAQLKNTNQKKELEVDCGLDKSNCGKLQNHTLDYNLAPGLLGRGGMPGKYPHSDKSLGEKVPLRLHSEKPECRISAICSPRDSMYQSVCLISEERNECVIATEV

B1: DLLBII115A05 (VHH)
VHH: EVQLVESGGGLVQPGGSLRLSCAASGFTFGSYDMSWVRRSPGKGPEWVSSINSGGGSTYYADFVKGRFTISRDNAKNTLYLQMNSLKPEDTAVYYCAADRYIRARQGDYWGAYEYDYWGQGTQVTVSS
notes: also called 115A5; DLLBII115A5
koff [1]: 0.0031 s⁻¹

B2: DLLBII015 (VHH, not shown: small tags and cut ends)
VHH: B1 VHH with F29I, S50A, F63Y, R103W, D108E, E114A
Kd [2]: 1 nM
koff [2]: 0.00047 s⁻¹
kon [2]: 450000 M⁻¹ s⁻¹
Kd [3]: 4.3 nM
koff [3]: 0.0015 s⁻¹
kon [3]: 350000 M⁻¹ s⁻¹
IC50, DLL4-mediated reporter assay [4]: 18 nM
EC50 [5]: 5.1 nM
EC50 [6]: 14.8 nM
EC50 [7]: 7 nM
Kd [8]: 1 nM
Kd [9]: 4.3 nM
IC50 [10]: 5.7 nM
IC50 [11]: 21.2 nM
EC50 [12]: 5.1 nM
EC50 [13]: 14.8 nM
EC50 [14]: 7 nM
IC50 [15]: 0.9 nM
IC50 [16]: 5.7 nM
IC50 [17]: 21.2 nM
IC50 [18]: 0.9 nM

B3: DLLBII133A09 (VHH, not shown: small tags and cut ends)
VHH: B1 VHH with S50A, F63Y, R103W, D108E, E114A
Kd [2]: 2.1 nM
koff [2]: 0.0009 s⁻¹
kon [2]: 440000 M⁻¹ s⁻¹
Kd [3]: 7.8 nM
koff [3]: 0.0027 s⁻¹
kon [3]: 350000 M⁻¹ s⁻¹
IC50, DLL4-mediated reporter assay [4]: 87 nM
EC50 [5]: 2.3 nM
EC50 [6]: 7.2 nM
EC50 [7]: 1.7 nM
Kd [8]: 2.1 nM
Kd [9]: 7.8 nM
IC50 [10]: 6.6 nM
IC50 [11]: 18.6 nM
EC50 [12]: 2.3 nM
EC50 [13]: 7.2 nM
EC50 [14]: 1.7 nM
IC50 [15]: 1.5 nM
IC50 [16]: 6.6 nM
IC50 [17]: 18.6 nM
IC50 [18]: 1.5 nM

B4: DLLBII133G05 (VHH, not shown: small tags and cut ends)
VHH: B1 VHH with S50A, A61T, F63Y, R103W, D108E, E114A
Kd [2]: 0.8 nM
koff [2]: 0.00047 s⁻¹
kon [2]: 590000 M⁻¹ s⁻¹
Kd [3]: 3.4 nM
koff [3]: 0.0016 s⁻¹
kon [3]: 470000 M⁻¹ s⁻¹
IC50, DLL4-mediated reporter assay [4]: 104 nM
EC50 [5]: 2.7 nM
EC50 [6]: 8.5 nM
EC50 [7]: 2.8 nM
Kd [8]: 0.8 nM
Kd [9]: 3.4 nM
IC50 [10]: 5.9 nM
IC50 [11]: 12 nM
EC50 [12]: 2.7 nM
EC50 [13]: 8.5 nM
EC50 [14]: 2.8 nM
IC50 [15]: 2 nM
IC50 [16]: 5.9 nM
IC50 [17]: 12 nM
IC50 [18]: 2 nM

B5: DLLBII56A09 (VHH)
VHH: EVQLVESGGGLVQPGGSLRLSCAASGFTFDDYAIGWFRQAPGKEPEGISCISSSGGITYYADSVKGRFTTSRDNAKNTVYLQMNSLKPEDTAVYYCATPGIAACRGIHYTGQGTQVTVSS
notes: also called 56A9; DLLBII56A9
koff [1]: 0.0011 s⁻¹
